Publication PMC4072508, “Genome-Wide Prediction and Validation of Peptides That Bind Human Prosurvival Bcl-2 Proteins” (PLoS Computational Biology, 2014)

T1: Mcl-1, Q07820
T1 chain: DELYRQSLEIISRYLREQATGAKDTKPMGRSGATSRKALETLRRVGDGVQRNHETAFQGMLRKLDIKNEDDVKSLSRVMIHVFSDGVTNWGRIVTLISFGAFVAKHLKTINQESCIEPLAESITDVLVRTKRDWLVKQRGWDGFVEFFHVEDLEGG


molecular target: Bcl-xL, Q07817; test: peptide SPOT array, c-Myc-tagged receptor at 1 uM or 100 nM, anti-c-Myc-Cy3
Sequence (Q07817 1-209): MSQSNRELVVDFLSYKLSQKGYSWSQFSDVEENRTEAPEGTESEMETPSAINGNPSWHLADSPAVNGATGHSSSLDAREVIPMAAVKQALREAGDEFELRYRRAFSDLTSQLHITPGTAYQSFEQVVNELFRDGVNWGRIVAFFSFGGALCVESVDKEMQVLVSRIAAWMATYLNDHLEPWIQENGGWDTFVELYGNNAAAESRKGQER

Row | SPOT signal as a fraction of Bim BH3's signal on the same receptor and array | Binder
1 | 0.02 | AVLCVECGYKDRFFGEDAEIAARELN [MSH3]
2 | 0.02 | ITVVGDVGGRDAIIVDDIIDDVESFV [PRPSAP1]
3 | 0.02 | DLSAVTLSRELQAMAEQLAENYHNTW [RYR1]
4 | 0.02 | RCELQICGLAMADALEYLCVCGQERT [OBSCN]
5 | 0.21 | KRALIQCAKDIAKALDEVTRLAKEVA
6 | 0.03 | AKFLLYLGHSDSTWGDRMWHFAVSVF [SLC40A1]
7 | 0.02 | AALFLHAGCQLLTALEDGKVQVWSGS [TEP1]
8 | 0.01 | CALLGSTGERDCLAGDSAGGNLCFTV [LIPE]
9 | 0.04 | CDLLGAKGKDILYIGDHIFGDILKSK [NT5C2]
10 | 0.02 | DLLGMVVVDELHMLLDSHRGYLLELL [POLQ]
11 | 0.03 | AIKWDPTGNLDASCSDDMTLKIWSMK [TBL1XR1]
12 | 0.02 | VLSRIEAGRSDKSVMDEFGISKSTFY
13 | 0.05 | KRALIQCAKDDAKASDEVTRLAKEVA
14 | 0.29 | CILNSFYGYVMRKGLRWYSMEMAGIV [POLE]
15 | 0.11 | VLSRIEAGRSLKSVMDEFGISKSTFY
16 | 0.34 | SRQPRDFGDSLARGLKGFLRGVVGGV [VPS13C]

More lines, now with the values behind:

Row | Binder | SPOT signal as a fraction of Bim BH3's signal on the same receptor and array
17 | HGTSSRIGSSMKSVLEVMAIGRTFEE | 0.02
18 | FRFAQLCGLHIVIHLDELEELMCYYQ [CLTCL1] | 0.02
19 | GSGLHGWAFTDKQFAEMYVAKFAAKG [EEF2] | 0.12
20 | GLFSATSGVDDKYVADTFGQEVRPVS [DDX7] | 0.02
21 | DVGTGAGLLEDKKIGDEYFTFITDCK | 0.01
22 | QRLINLVGESDRLLGNTFVALSDLRC | 0.08
23 | EKVLIFGGDIDKFAGDALLALWRVER [ADCY10] | 0.02
24 | KLPVVGIGKHLCGMATDLALRCLVET | 0.04
25 | DHTDGVVACAAGLIGDLCTAFGKDVL | 0.02
26 | DVGTGAGLLEIKKILDEYFTFITDCK | 0.02
27 | TLHFNQRGTWLASGLDDLKVVVWDWV [DCAF8] | 0.02
28 | FRLAQMCGLHIVVHLDELEELINYYQ | 0.02
29 | DEHISYVATKVCHLGDQLEGVNTPRQ [EXOC5] | 0.02
30 | ELQAPATVQSLGLLGDRLCVGAAGGF [CDC42BPG] | 0.01
31 | KLPVVGIGKHLCGMLTDLALRCLVET | 0.04
32 | QRLINLVGESLRLLGNTFVALSDLRC | 0.05
33 | DHTDGVVACAAGLILDLCTAFGKDVL | 0.01
34 | FRLAQMCGLHIVVHADELEELINYYQ | 0.02
35 | ISDVQVFGYSLRFNLDLLRSAVQQVN [DBC1] | 0.03
36 | LRCEMASTGEDACFGEGIHTAFLKAM | 0.02
37 | LSPGRSVTAGIIIVGDEILKGHTQDT [FLAD1] | 0.01
38 | RHFVIRRGQVLREILEEYGGVMVSFP [HDLBP] | 0.04
39 | KKCQDMIMTELTNAGDDVVVFYNDKA [ITPR3] | 0.02
40 | TPSRSALSSEDSLVGDTTGDTLEKFV | 0.01
41 | TPSRSALSSELSLVLDTTGDTLEKFV | 0.02

Molecular target: T1, Mcl-1, Q07820
Test: as above

Row | SPOT signal as a fraction of Bim BH3's signal on the same receptor and array | Binder
42 | 0.02 | AVLCVECGYKDRFFGEDAEIAARELN [MSH3]
43 | 0.01 | ITVVGDVGGRDAIIVDDIIDDVESFV [PRPSAP1]
44 | 0.02 | DLSAVTLSRELQAMAEQLAENYHNTW [RYR1]
45 | 0.02 | RCELQICGLAMADALEYLCVCGQERT [OBSCN]
46 | 0.05 | KRALIQCAKDIAKALDEVTRLAKEVA
47 | 0.03 | AKFLLYLGHSDSTWGDRMWHFAVSVF [SLC40A1]
48 | 0.01 | AALFLHAGCQLLTALEDGKVQVWSGS [TEP1]
49 | 0.01 | CALLGSTGERDCLAGDSAGGNLCFTV [LIPE]
50 | 0.04 | CDLLGAKGKDILYIGDHIFGDILKSK [NT5C2]
51 | 0.02 | DLLGMVVVDELHMLLDSHRGYLLELL [POLQ]
52 | 0.03 | AIKWDPTGNLDASCSDDMTLKIWSMK [TBL1XR1]
53 | 0.02 | VLSRIEAGRSDKSVMDEFGISKSTFY
54 | 0.02 | KRALIQCAKDDAKASDEVTRLAKEVA
55 | 0.24 | CILNSFYGYVMRKGLRWYSMEMAGIV [POLE]
56 | 0.11 | VLSRIEAGRSLKSVMDEFGISKSTFY
57 | 0.18 | SRQPRDFGDSLARGLKGFLRGVVGGV [VPS13C]

The remaining lines, values behind:

Row | Binder | SPOT signal as a fraction of Bim BH3's signal on the same receptor and array
58 | HGTSSRIGSSMKSVLEVMAIGRTFEE | 0.02
59 | FRFAQLCGLHIVIHLDELEELMCYYQ [CLTCL1] | 0.03
60 | GSGLHGWAFTDKQFAEMYVAKFAAKG [EEF2] | 0.03
61 | GLFSATSGVDDKYVADTFGQEVRPVS [DDX7] | 0.01
62 | DVGTGAGLLEDKKIGDEYFTFITDCK | 0.01
63 | QRLINLVGESDRLLGNTFVALSDLRC | 0.02
64 | EKVLIFGGDIDKFAGDALLALWRVER [ADCY10] | 0.02
65 | KLPVVGIGKHLCGMATDLALRCLVET | 0.03
66 | DHTDGVVACAAGLIGDLCTAFGKDVL | 0.02
67 | DVGTGAGLLEIKKILDEYFTFITDCK | 0.02
68 | TLHFNQRGTWLASGLDDLKVVVWDWV [DCAF8] | 0.02
69 | FRLAQMCGLHIVVHLDELEELINYYQ | 0.02
70 | DEHISYVATKVCHLGDQLEGVNTPRQ [EXOC5] | 0.01
71 | ELQAPATVQSLGLLGDRLCVGAAGGF [CDC42BPG] | 0.01
72 | KLPVVGIGKHLCGMLTDLALRCLVET | 0.03
73 | QRLINLVGESLRLLGNTFVALSDLRC | 0.03
74 | DHTDGVVACAAGLILDLCTAFGKDVL | 0.02
75 | FRLAQMCGLHIVVHADELEELINYYQ | 0.02
76 | ISDVQVFGYSLRFNLDLLRSAVQQVN [DBC1] | 0.02
77 | LRCEMASTGEDACFGEGIHTAFLKAM | 0.03
78 | LSPGRSVTAGIIIVGDEILKGHTQDT [FLAD1] | 0.01
79 | RHFVIRRGQVLREILEEYGGVMVSFP [HDLBP] | 0.05
80 | KKCQDMIMTELTNAGDDVVVFYNDKA [ITPR3] | 0.01
81 | TPSRSALSSEDSLVGDTTGDTLEKFV | 0.01
82 | TPSRSALSSELSLVLDTTGDTLEKFV | 0.01
